Assay results as given in patent US20160279215A1, “NOVEL PEPTIDES AND COMBINATION OF PEPTIDES FOR USE IN IMMUNOTHERAPY AGAINST VARIOUS TUMORS” (immatics biotechnologies GmbH, priority 2015, published 2016).

What follows are binders tested against T1, HLA-A*02:01 (human) (assay: UV ligand-exchange ELISA (anti-b2m); +++ = exchange yield >=50).
T1 construct: MHC monomers captured on streptavidin plates; the UV-sensitive peptide is cleaved and exchanged with the test peptide; also called peptide-receptive MHC molecules; MHC class I
Source text: Candidate peptides for T cell based therapies according to the present invention were further tested for their MHC binding capacity (affinity). The individual peptide-MHC complexes were produced by UV-ligand exchange, where a UV-sensitive peptide is cleaved upon UV-irradiation, and exchanged with the peptide of interest as analyzed. Only peptide candidates that can effectively bind and stabilize the peptide-receptive MHC molecules prevent dissociation of the MHC complexes. To determine the yield of the exchange reaction, an ELISA was performed based on the detection of the light chain (β2m) of stabilized MHC complexes. The assay was performed as generally described in Rodenko et al. (Rodenko et al., 2006).
96 well MAXISorp plates (NUNC) were coated over night with 2 ug/ml streptavidin in PBS at room temperature, washed 4× and blocked for 1 h at 37° C. in 2% BSA containing blocking buffer. Refolded HLA-A*02:01/MLA-001 monomers served as standards, covering the range of 15-500 ng/ml. Peptide-MHC monomers of the UV-exchange reaction were diluted 100 fold in blocking buffer. Samples were incubated for 1 h at 37° C., washed four times, incubated with 2 ug/ml HRP conjugated anti-β2m for 1 h at 37° C., washed again and detected with TMB solution that is stopped with […]. Absorption was measured at 450 nm. Candidate peptides that show a high exchange yield (preferably higher than 50%, most preferred higher than 75%) are generally preferred for a generation and production of antibodies or fragments thereof, and/or T cell receptors or fragments thereof, as they show sufficient avidity to the MHC molecules and prevent dissociation of the MHC complexes.

Peptide exchange yield, 50 to 75%:
LLLPLELSLA
YLVPGLVAA
GLAALAVHL
QLIEKNWLL
KLIDHQGLYL
HLLGEGAFAQV
GLLETTGLLAT
SLAETIFIV (also called HTR3A-001)
FLIENLLAA
ALSELLQQV
IITEVITRL
KISDFGLATV
QLMNLIRSV
FLNDIFERI
TLLTFFHEL
AVFNLVHVV
KLQEELNKV
SLFSNIESV
ALYPKEITL
KLLAVIHEL (also called RAD54B-002)
GLNGFNVLL
ILLSVLHQL
YLLDMPLWYL
LLLEAVWHL
FLTEMVHFI
TLNTLDINL
FTAEFLEKV
VLDGKVAVV
TVLQELINV
SIIEYLPTL
SLVENIHVL
IVTEIISEI
GLVDIMVHL
FLMKNSDLYGA
VLEDKVLSV
ALADGIKSFLL
KLLSLLEEA
SLITGQDLLSV
YLEDGFAYV
RMPTVLQCV
ILAEEPIYIRV
VLFGELPAL
GLLGKVTSV
ALLQALMEL
FLPVSVVYV
KIWEELSVLEV (also called MAGEA3-003)
HLWGHALFL
TLYNPERTITV (also called IGF-004)
YLYQILQGI
LMQDSRLYL
VLTGQVHEL
YLFSQGLQGL
ALNESLVEC
KLLPMVIQL
LLWGNLPEI
MLLDTVQKV
ALYGNVQQV
VLIEYNFSI
HLFDKIIKI
ALLDGALQL
FLLDKPQDLSI
